Starred links: 1 amine or outer side, 2 acyl side, 3 side chain; linkers in the order of their positions; H or OH if unused. Non-standard residues stand in square brackets, D forms with d. No end group written: not given here. *: point of attachment. (iBu)F(pNH2) = N-alpha-isobutyl-4-amino-phenylalanine, CC(C)CN([C@@H](Cc1ccc(N[*:3])cc1)C(=O)[*:2])[*:1]; (iBu)Phe(4-NH2) = N-isobutyl-4-amino-L-phenylalanine, CC(C)CN([C@@H](Cc1ccc(N[*:3])cc1)C(=O)[*:2])[*:1]; (iBu)Y = N-alpha-isobutyl-tyrosine, CC(C)CN([C@@H](Cc1ccc(O[*:3])cc1)C(=O)[*:2])[*:1]; Phe(4-amidino) = N=C(N)c1ccc(C[C@H](N)C(=O)O)cc1; Phe(4-CONH2) = NC(=O)c1ccc(C[C@H](N)C(=O)O)cc1; Phe(4-NH2) = Nc1ccc(C[C@H](N)C(=O)O)cc1; Chg = N[C@H](C(=O)O)C1CCCCC1; Tfa = O=C(C(F)(F)F)*
Key:
[1] = molecular target: T1, human factor Xa (Enzyme Research Laboratories, Inc.) (human, UniProt P00742 41-179; P00742 235-488, limits assumed); experiment: chromogenic FXa inhibition
Experimental: TBS-P buffer (50 mM Tris-Cl, pH 7.8, 200 mM NaCl, 0.05% (w/v) PEG-8000, 0.02% (w/v) NaN_3) was used for this assay. The IC$50$ was determined by combining in appropriate wells of a Costar half-area microtiter plate 25 μl human factor Xa (Enzyme Research Laboratories, Inc.; South Bend Ind.) in TBS-P; 40 μl 10% (v/v) DMSO in TBS-P (uninhibited control) or various concentrations of a peptide to be tested diluted in 10% (v/v) DMSO in TBS-P; and substrate S-2765 (Nα-benzyloxycarbonyl-D-Arg-Gly-L-Arg-p-nitroanilide; Kabi Pharmacia, Inc.; Franklin Ohio) in TBS-P.
The assays were performed by pre-incubating the peptide inhibitor plus enzyme for 10 min, then the assay was initiated by adding substrate to obtain a final volume of 100 μl. The initial velocity of chromogenic substrate hydrolysis was measured by the change in absorbance at 405 nm using a Bio-tek Instruments kinetic plate reader (Ceres UV900HDi) at 25° C. during the linear portion of the time course (usually 1–5 min after addition of substrate). The concentration of inhibitor that caused a 50% decrease in the rate of substrate hydrolysis was predicted by linear regression after plotting the relative rates of hydrolysis (compared to the uninhibited control) versus the log of the peptide concentration. The enzyme concentration was 0.5 nM and substrate concentration was 140 μM.

[2] = molecular target: T1, human factor Xa (Enzyme Research …); experiment: chromogenic FXa inhibition; remark: listed apart in the source
How it was run: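 Human FXa (0.5 nM) preincubated 10 min with inhibitor in TBS-P (pH 7.8, 200 mM NaCl, PEG-8000), then S-2765 added (140 μM). Initial hydrolysis rate read at 405 nm, 25° C.; IC50 by linear regression of relative rate vs log concentration.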

[3] = molecular target: T1, human factor Xa (Enzyme Research …); experiment: chromogenic enzyme inhibition, IC50 corrected for substrate
[4] = molecular target: T1, human factor Xa (Enzyme Research …); experiment: cell-based or functional assay

T1 sequence (P00742 41-179 limits assumed, chain 1 of 2): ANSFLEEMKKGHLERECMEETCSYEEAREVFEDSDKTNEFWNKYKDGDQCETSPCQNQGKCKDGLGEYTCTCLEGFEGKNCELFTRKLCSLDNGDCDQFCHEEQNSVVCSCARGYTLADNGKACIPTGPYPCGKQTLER
T1 sequence (P00742 235-488 limits assumed, chain 2 of 2): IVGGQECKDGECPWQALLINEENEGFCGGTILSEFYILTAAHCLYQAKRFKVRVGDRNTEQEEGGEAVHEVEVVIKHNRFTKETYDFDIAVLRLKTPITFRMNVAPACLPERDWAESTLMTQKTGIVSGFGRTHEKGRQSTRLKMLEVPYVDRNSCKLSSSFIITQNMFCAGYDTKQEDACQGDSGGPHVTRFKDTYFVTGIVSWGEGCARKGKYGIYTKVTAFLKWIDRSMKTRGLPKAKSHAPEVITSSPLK

| Binder | Ki [1] | Ki [2] | Ki [3] | EC50 (concentration giving 50% inhibition of coagulation), in vitro dilute prothrombin time assay, pooled human plasma [4] |
| --- | --- | --- | --- | --- |
| Tfa-[(iBu)F(pNH2)][Chg]RLP-NH2 (SMILES CC(C)C[C@H](NC(=O)[C@H](CCCNC(=N)N)NC(=O)[C@@H](NC(=O)[C@H](Cc1ccc(N)cc1)N(CC(C)C)C(=O)C(F)(F)F)C1CCCCC1)C(=O)N1CCC[C@H]1C(N)=O, also called CF3C(O)-(iBu)Phe(NH2)-Chg-Arg-Leu-Pro-NH2) [Tfa-(iBu)F(pNH2)-Chg-R-L-P-NH2] | < 100 µM | < 100 µM | – | – |
| Ac-[Phe(4-NH2)][Chg]RLP-NH2 (SMILES CC(=O)N[C@@H](Cc1ccc(N)cc1)C(=O)N[C@H](C(=O)N[C@@H](CCCNC(=N)N)C(=O)N[C@@H](CC(C)C)C(=O)N1CCC[C@H]1C(N)=O)C1CCCCC1, also called Ac-Phe(pNH2)-Chg-Arg-Leu-Pro-NH2) [Ac-F(pNH2)-Chg-R-L-P-NH2] | < 100 µM | < 100 µM | – | – |
| YIRLP (D-Tyr at 1; C-term NH2, also called (D)-Tyr-Ile-Arg-Leu-Pro-NH2) [y-I-R-L-P-NH2] | – | < 100 µM | 0.2 µM | – |
| {5‑benzimidazolecarbonyl}-[Phe(4-NH2)][Chg]RLP-NH2 (also called (5-benzimidazoyl)-Phe(NH2)-Chg-Arg-Leu-Pro-NH2) [5-Bzim-CO-F(pNH2)-Chg-R-L-P-NH2] | < 100 µM | < 100 µM | – | – |
| Ac-[(iBu)Phe(4-NH2)][Chg]RLP-NH2 (also called Ac-(iBu)-Phe(pNH2)-Chg-Arg-Leu-Pro-NH2) [Ac-(iBu)F(pNH2)-Chg-R-L-P-NH2] | < 100 µM | < 100 µM | – | – |
| Ac-[Phe(4-amidino)]IRLP-NH2 (SMILES CC[C@H](C)[C@H](NC(=O)[C@H](Cc1ccc(C(=N)N)cc1)NC(C)=O)C(=O)N[C@@H](CCCNC(=N)N)C(=O)N[C@@H](CC(C)C)C(=O)N1CCC[C@H]1C(N)=O) [Ac-pAph-I-R-L-P-NH2] | < 100 µM | < 100 µM | – | – |
| XIRLP (N-term Tfa; N-(iBu) on Y1; C-term NH2) [Tfa-(iBu)Y-I-R-L-P-NH2] | < 100 µM | < 100 µM | – | – |
| XIRLP (N-term Ac; N-(2-Me-nBu) on Y1; C-term NH2) [Ac-(2-Me-nBu)Y-I-R-L-P-NH2] | < 100 µM | < 100 µM | – | – |
| XIRLP (N-term Ac; N-(2-Me-nPentyl) on Y1; C-term NH2, also called Ac-(CH3CH2CH2CH(CH3)CH2)-Y-I-R-L-P-NH2) [Ac-(2-Me-nPentyl)Y-I-R-L-P-NH2] | < 100 µM | < 100 µM | – | – |
| XIRLP (N-term Ac; N-(Chx-CH2) on Y1; C-term NH2, also called Ac-(Chx-CH2)Tyr-Ile-Arg-Leu-Pro-NH2; Ac-(Chx-CH2)-Tyr-Ile-Arg-Leu-Pro-NH2) [Ac-(Chx-CH2)Y-I-R-L-P-NH2] | < 100 µM | < 100 µM | – | – |
| Ac-[Phe(4-CONH2)][Chg]RLP-NH2 (SMILES CC(=O)N[C@@H](Cc1ccc(C(N)=O)cc1)C(=O)N[C@H](C(=O)N[C@@H](CCCNC(=N)N)C(=O)N[C@@H](CC(C)C)C(=O)N1CCC[C@H]1C(N)=O)C1CCCCC1, also called Ac-Phe(pCONH2)-Chg-R-L-P-NH2; Ac-Phe(p-CONH2)-Chg-Arg-Leu-Pro-NH2) [Ac-F(pCONH2)-Chg-R-L-P-NH2] | < 100 µM | < 100 µM | – | – |
| Tfa-[(iBu)Y][Chg]RLP-NH2 (also called Tfa-(iBu)Tyr-Chg-Arg-Leu-Pro-NH2) [Tfa-(iBu)Y-Chg-R-L-P-NH2] | – | < 100 µM | – | 0.3 µM |
| [dY][Chg]RLP-NH2 (also called D-Tyr-Chg-Arg-Leu-Pro-NH2) [y-Chg-R-L-P-NH2] | < 100 µM | < 100 µM | – | – |
| Ac-W[Chg]RLP-NH2 (SMILES CC(=O)N[C@@H](Cc1c[nH]c2ccccc12)C(=O)N[C@H](C(=O)N[C@@H](CCCNC(=N)N)C(=O)N[C@@H](CC(C)C)C(=O)N1CCC[C@H]1C(N)=O)C1CCCCC1, also called Ac-Trp-Chg-Arg-Leu-Pro-NH2) [Ac-W-Chg-R-L-P-NH2] | < 100 µM | < 100 µM | – | – |
| Ac-Y[Chg]RLP-NH2 (SMILES CC(=O)N[C@@H](Cc1ccc(O)cc1)C(=O)N[C@H](C(=O)N[C@@H](CCCNC(=N)N)C(=O)N[C@@H](CC(C)C)C(=O)N1CCC[C@H]1C(N)=O)C1CCCCC1, also called Ac-Tyr-Chg-Arg-Leu-Pro-NH2) [Ac-Y-Chg-R-L-P-NH2] | < 100 µM | < 100 µM | – | 0.225 µM |
| Tfa-Y[Chg]RLP-NH2 [Tfa-Y-Chg-R-L-P-NH2] | < 100 µM | < 100 µM | – | – |

From patent US6759384 (AVENTIS PHARMACEUTICALS, dated 2004)
